The values that follow come from PMC6684389.

The target of this data set is YTHDC1 YTH domain (UniProt Q96MU7 345-509). The data set can be described thus: MST.

The Kd is the constant that tells how readily two partners part at equilibrium. Low readings indicate higher affinity, high ones lower affinity.

B1: probe 1 (ssRNA)
RNA: AAAGGACGUGG
modifications: m6A at position 6
On to B1, for which the Kd is 0.39 µM.

B2: probe 2 (ssRNA)
RNA: AAAGGACGUGG
The molecule B2 showed a Kd of 16.9 µM.
